One may read the Kd as the equilibrium constant for the complex coming apart.

The target in assay [1] is H5N1 HA蛋白(BIOHJSW，货号orb-EHJ075488) (H5N1 avian influenza virus).
Assay [2] has as its target H1 HA. Description: indirect ELISA, coated HA 5 μg/mL, hybridoma supernatant. In general terms: In an ELISA, binding on a coated surface is turned into a signal by an enzyme label.
Assay [3] deals with H3 HA. Described as above.
The target in assay [4] is H5N1 HA蛋白(BIOHJSW，货号orb-EHJ075488) (H5N1 avian influenza virus). The assay is described as above.

B1: H5-3F5单克隆抗体 (antibody, V domains shown)
VH: EVQLVESGGGLVQPGGSLRLSCAASGFSLSEAVSGWVRQAPGKGLEWVGVCNNRIPFYLTWCKLFRFTISKDNSKNTLYLQMNSLRAEDTAVYYCARQRSYCNFQPHPNGWGQGTLVTVSS
VL: AYQMTQSPSSVSASVGDRVTITCGQNMMWIPAWLWYQQKPGKAPKLLIYETNGEHYGVPSRFSGSGSGTDFTLTISSLQPEDFATYYCMMMNARKSLQATKFGGGTKVEIK
With B1, the equilibrium dissociation constant (Kd) in assay [1] turned out to be 407 pM. Also, the results for the OD450 in assay [2], in assay [3] and in assay [4] were 0.231 OD450, 0.412 OD450 and 2.62 OD450, respectively.

Source of the values: patent publication CN115353562A.
